Measurements from IntAct's records for PubMed 16234233.

B1: Acid-sensing ion channel 3 (Rattus norvegicus (Rat)), O35240 (parent)
chain: MKPRSGLEEAQRRQASDIRVFASSCTMHGLGHIFGPGGLTLRRGLWATAVLLSLAAFLYQVAERVRYYGEFHHKTTLDERESHQLTFPAVTLCNINPLRRSRLTPNDLHWAGTALLGLDPAEHAAYLRALGQPPAPPGFMPSPTFDMAQLYARAGHSLEDMLLDCRYRGQPCGPENFTVIFTRMGQCYTFNSGAHGAELLTTPKGGAGNGLEIMLDVQQEEYLPIWKDMEETPFEVGIRVQIHSQDEPPAIDQLGFGAAPGHQTFVSCQQQQLSFLPPPWGDCNTASLDPDDFDPEPSDPLGSPRPRPSPPYSLIGCRLACESRYVARKCGCRMMHMPGNSPVCSPQQYKDCASPALDAMLRKDTCVCPNPCATTRYAKELSMVRIPSRASARYLARKYNRSESYITENVLVLDIFFEALNYEAVEQKAAYEVSELLGDIGGQMGLFIGASLLTILEILDYLCEVFQDRVLGYFWNRRSAQKRSGNTLLQEELNGHRTHVPHLSLGPRPPTTPCAVTKTLSASHRTCYLVTRL
partner: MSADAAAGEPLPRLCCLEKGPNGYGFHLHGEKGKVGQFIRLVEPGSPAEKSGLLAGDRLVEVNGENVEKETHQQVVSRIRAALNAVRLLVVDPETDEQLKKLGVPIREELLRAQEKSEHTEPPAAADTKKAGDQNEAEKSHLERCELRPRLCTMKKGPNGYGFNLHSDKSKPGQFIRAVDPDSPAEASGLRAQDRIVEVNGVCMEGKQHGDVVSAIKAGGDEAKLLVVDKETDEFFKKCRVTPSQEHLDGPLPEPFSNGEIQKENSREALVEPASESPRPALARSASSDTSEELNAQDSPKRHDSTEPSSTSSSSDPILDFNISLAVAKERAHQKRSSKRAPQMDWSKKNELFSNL

Variants of: B1
Settings: with nhrf1_rat Nherf1, Q9JJ19

Variant	effect of a mutation on the interaction
S523G	decreasing interaction
S523D	increasing interaction
